Our source for the Ki values is patent publication US20210032299A1 (Eli Lilly, published 2021).

Starred links: 1 amine or outer side, 2 acyl side, 3 side chain; linkers in the order of their positions; H or OH if unused. Non-standard residues stand in square brackets, D forms with d. Groups on a side chain read outwards from the residue. No end group written: not given here. *: point of attachment. C20 diacid = O=C(O)CCCCCCCCCCCCCCCCCCC(=O)*; γGlu = O=C(O)[C@H](CCC(=O)[*:2])N[*:1]; αMeY = C[C@](N)(Cc1ccc(O)cc1)C(=O)O; αMeL = CC(C)C[C@](C)(N)C(=O)O; AEEA = NCCOCCOCC(=O)O; Aib = CC(C)(N)C(=O)O

Test [1] has as its target T1, human glucose-dependent insulinotropic polypeptide (GIP) receptor (human, UniProt P48546 22-466).
T1 construct: whole, on cells; Assayed as crude membranes of stably transfected CHO cells; also called hGIPR; human GIP receptor
T1 sequence (looked up): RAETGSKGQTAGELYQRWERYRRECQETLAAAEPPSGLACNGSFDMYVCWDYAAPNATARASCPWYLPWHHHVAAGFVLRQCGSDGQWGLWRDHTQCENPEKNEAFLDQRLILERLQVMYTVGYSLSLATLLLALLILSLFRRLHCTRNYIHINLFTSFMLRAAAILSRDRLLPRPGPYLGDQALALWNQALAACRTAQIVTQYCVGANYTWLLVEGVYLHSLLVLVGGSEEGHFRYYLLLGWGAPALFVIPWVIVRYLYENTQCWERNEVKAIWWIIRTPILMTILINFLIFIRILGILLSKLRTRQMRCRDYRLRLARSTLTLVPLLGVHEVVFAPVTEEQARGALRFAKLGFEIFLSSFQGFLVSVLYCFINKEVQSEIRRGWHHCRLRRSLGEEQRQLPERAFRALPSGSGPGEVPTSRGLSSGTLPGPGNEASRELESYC
Put plainly: SPA, displacement of [125I]-GIP from hGIPR membranes, 0.1% bacitracin.

Another test deals with T2, human glucagon receptor (human, UniProt P47871 26-477).
T2 construct: whole, on cells; Assayed as crude membranes of stably transfected HEK293 cells; also called hGcgR; GcgR
Kind of test: SPA, displacement of [125I]-Gcg from hGcgR membranes, 0.1% bacitracin. The method in brief:
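Binding buffer: 25 mM HEPES pH 7.4, 2.5 mM CaCl₂, 1 mM MgCl₂, 0.003% Tween-20, protease inhibitors without EDTA. Counted by scintillation after 12 h incubation/settling at room temperature. Four-parameter nonlinear fit; Kᵢ given as geometric mean ± SEM of independent replicates run on different days.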

The next test addresses T3, human GLP-1 receptor (human, UniProt P43220 24-463).
T3 construct: whole, on cells; Assayed as crude membranes of stably transfected HEK293 cells; also called hGLP1R; hGLP-1R
Kind of test: SPA, displacement of [125I]-GLP-1 from hGLP-1R membranes, 0.1% bacitracin. The method in brief:
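Binding buffer: 25 mM HEPES pH 7.4, 2.5 mM CaCl₂, 1 mM MgCl₂, 0.1% bacitracin, 0.003% Tween-20, protease inhibitors without EDTA. Four-parameter nonlinear regression; Kᵢ given as geometric mean ± SEM, n = independent replicates run on different days.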

T2 sequence (P47871 26-477): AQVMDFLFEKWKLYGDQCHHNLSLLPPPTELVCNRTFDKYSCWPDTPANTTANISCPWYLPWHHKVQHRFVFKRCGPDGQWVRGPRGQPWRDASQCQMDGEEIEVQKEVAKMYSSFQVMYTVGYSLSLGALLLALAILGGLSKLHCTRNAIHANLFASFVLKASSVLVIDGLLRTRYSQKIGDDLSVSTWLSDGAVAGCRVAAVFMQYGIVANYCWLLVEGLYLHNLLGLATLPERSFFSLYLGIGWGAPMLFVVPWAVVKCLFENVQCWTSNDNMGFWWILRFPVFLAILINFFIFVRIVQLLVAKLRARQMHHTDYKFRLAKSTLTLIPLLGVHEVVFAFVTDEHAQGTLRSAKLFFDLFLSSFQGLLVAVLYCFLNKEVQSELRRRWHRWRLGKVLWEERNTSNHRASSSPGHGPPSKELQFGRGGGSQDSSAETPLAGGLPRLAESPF

B1: Example 8 (peptide)
peptide: Y[Aib]EGTFISDYSILLDKK([AEEA-AEEA-γGlu-C20 diacid])AQ[Aib]DFVNWLLAQGPSSGAPPPS-NH2
modifications: N-terminus assumed
SMILES: CC[C@H](C)[C@H](NC(=O)[C@H](CO)NC(=O)[C@H](Cc1ccc(O)cc1)NC(=O)[C@H](CC(=O)O)NC(=O)[C@H](CO)NC(=O)[C@@H](NC(=O)[C@H](Cc1ccccc1)NC(=O)[C@@H](NC(=O)CNC(=O)[C@H](CCC(=O)O)NC(=O)C(C)(C)NC(=O)[C@@H](N)Cc1ccc(O)cc1)[C@@H](C)O)[C@@H](C)CC)C(=O)N[C@@H](CC(C)C)C(=O)N[C@@H](CC(C)C)C(=O)N[C@@H](CC(=O)O)C(=O)N[C@@H](CCCCN)C(=O)N[C@@H](CCCCNC(=O)COCCOCCNC(=O)COCCOCCNC(=O)CC[C@H](NC(=O)CCCCCCCCCCCCCCCCCCC(=O)O)C(=O)O)C(=O)N[C@@H](C)C(=O)N[C@@H](CCC(N)=O)C(=O)NC(C)(C)C(=O)N[C@@H](CC(=O)O)C(=O)N[C@@H](Cc1ccccc1)C(=O)N[C@H](C(=O)N[C@@H](CC(N)=O)C(=O)N[C@@H](Cc1c[nH]c2ccccc12)C(=O)N[C@@H](CC(C)C)C(=O)N[C@@H](CC(C)C)C(=O)N[C@@H](C)C(=O)N[C@@H](CCC(N)=O)C(=O)NCC(=O)N1CCC[C@H]1C(=O)N[C@@H](CO)C(=O)N[C@@H](CO)C(=O)NCC(=O)N[C@@H](C)C(=O)N1CCC[C@H]1C(=O)N1CCC[C@H]1C(=O)N1CCC[C@H]1C(=O)N[C@@H](CO)C(N)=O)C(C)C
On to B1, for which the Ki is 0.027 nM in test [1], 101 nM with human glucagon receptor and 38.1 nM in the test with human GLP-1 receptor.

B2: Example 91 (peptide)
peptide: Y[Aib]EGTFISDYSI[αMeL]LDKK([AEEA-AEEA-γGlu-C20 diacid])HQ[Aib]DFVE[αMeY]LLEGGPSSGAPPPS-NH2
modifications: N-terminus assumed
SMILES: CC[C@H](C)[C@H](NC(=O)[C@H](Cc1ccccc1)NC(=O)[C@@H](NC(=O)CNC(=O)[C@H](CCC(=O)O)NC(=O)C(C)(C)NC(=O)[C@@H](N)Cc1ccc(O)cc1)[C@@H](C)O)C(=O)N[C@@H](CO)C(=O)N[C@@H](CC(=O)O)C(=O)N[C@@H](Cc1ccc(O)cc1)C(=O)N[C@@H](CO)C(=O)N[C@H](C(=O)N[C@@](C)(CC(C)C)C(=O)N[C@@H](CC(C)C)C(=O)N[C@@H](CC(=O)O)C(=O)N[C@@H](CCCCN)C(=O)N[C@@H](CCCCNC(=O)COCCOCCNC(=O)COCCOCCNC(=O)CC[C@H](NC(=O)CCCCCCCCCCCCCCCCCCC(=O)O)C(=O)O)C(=O)N[C@@H](Cc1c[nH]cn1)C(=O)N[C@@H](CCC(N)=O)C(=O)NC(C)(C)C(=O)N[C@@H](CC(=O)O)C(=O)N[C@@H](Cc1ccccc1)C(=O)N[C@H](C(=O)N[C@@H](CCC(=O)O)C(=O)N[C@@](C)(Cc1ccc(O)cc1)C(=O)N[C@@H](CC(C)C)C(=O)N[C@@H](CC(C)C)C(=O)N[C@@H](CCC(=O)O)C(=O)NCC(=O)NCC(=O)N1CCC[C@H]1C(=O)N[C@@H](CO)C(=O)N[C@@H](CO)C(=O)NCC(=O)N[C@@H](C)C(=O)N1CCC[C@H]1C(=O)N1CCC[C@H]1C(=O)N1CCC[C@H]1C(=O)N[C@@H](CO)C(N)=O)C(C)C)[C@@H](C)CC
As to B2, the values for the Ki (in test [1]; with human glucagon receptor; with human GLP-1 receptor) were 0.122 nM, 54.4 nM and 37.4 nM, respectively.

One may read the Ki as the dissociation constant of the complex between target and ligand, obtained from inhibition or displacement. Lower therefore signals a stronger hold on the target.
